Source: patent publication US7893197B2, “Relaxin-3 chimeric polypeptides and their preparation and use” (Janssen Pharmaceutica N.V., priority 2005, dated 2011)
Ends that are not written are not given here.

T1: LGR7 (Homo sapiens, UniProt Q9HBX9)
T1 construct: Human LGR7 cDNA containing the complete coding region was PCR amplified; expressed in transfected cells
T1 sequence (Q9HBX9 1-757): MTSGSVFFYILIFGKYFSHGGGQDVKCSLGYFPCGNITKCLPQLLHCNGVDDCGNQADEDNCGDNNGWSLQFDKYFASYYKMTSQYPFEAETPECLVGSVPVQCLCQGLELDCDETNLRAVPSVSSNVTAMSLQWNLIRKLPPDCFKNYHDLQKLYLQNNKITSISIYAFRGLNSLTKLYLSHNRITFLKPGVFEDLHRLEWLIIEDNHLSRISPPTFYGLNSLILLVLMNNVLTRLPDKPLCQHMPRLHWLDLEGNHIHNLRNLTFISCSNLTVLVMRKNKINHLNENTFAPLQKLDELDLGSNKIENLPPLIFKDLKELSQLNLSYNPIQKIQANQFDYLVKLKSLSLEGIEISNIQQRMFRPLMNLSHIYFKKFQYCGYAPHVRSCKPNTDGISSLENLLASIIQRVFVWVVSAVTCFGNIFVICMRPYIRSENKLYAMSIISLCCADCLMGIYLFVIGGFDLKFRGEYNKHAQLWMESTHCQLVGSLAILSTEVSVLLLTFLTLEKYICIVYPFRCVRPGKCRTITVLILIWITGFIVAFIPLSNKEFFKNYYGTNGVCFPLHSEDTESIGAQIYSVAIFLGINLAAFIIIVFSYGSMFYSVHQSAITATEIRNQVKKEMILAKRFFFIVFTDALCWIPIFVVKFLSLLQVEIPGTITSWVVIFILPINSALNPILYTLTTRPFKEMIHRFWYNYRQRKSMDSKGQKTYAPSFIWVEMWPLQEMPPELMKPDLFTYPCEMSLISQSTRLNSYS

T2: GPCR135 (Homo sapiens, UniProt Q9NSD7)
T2 construct: expressed in transfected cells
T2 sequence (Q9NSD7 1-469): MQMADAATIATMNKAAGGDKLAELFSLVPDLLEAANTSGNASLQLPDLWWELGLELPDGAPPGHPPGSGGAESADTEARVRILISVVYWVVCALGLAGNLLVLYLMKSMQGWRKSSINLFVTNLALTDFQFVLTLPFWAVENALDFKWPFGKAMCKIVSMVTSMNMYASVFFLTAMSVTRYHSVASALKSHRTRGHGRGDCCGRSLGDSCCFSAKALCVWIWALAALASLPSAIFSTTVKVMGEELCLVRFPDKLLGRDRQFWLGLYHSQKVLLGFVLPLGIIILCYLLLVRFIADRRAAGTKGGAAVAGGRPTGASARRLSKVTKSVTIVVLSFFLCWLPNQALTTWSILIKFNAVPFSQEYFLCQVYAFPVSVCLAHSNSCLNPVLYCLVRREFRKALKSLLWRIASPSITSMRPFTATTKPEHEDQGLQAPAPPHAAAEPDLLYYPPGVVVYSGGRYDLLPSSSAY


Key:
[1] = target: T1, LGR7; assay: Binding of radioligands to COS-7 cells transfected with LGR7; conditions: radioligand 100 pM
Procedure: (§1) FIGS. 5A-5D illustrate a comparative analysis of the binding specificities of [^125I]-relaxin-3 and [^125I]-R3/I5 for GPCR135 and LGR7. COS-7 cells in 6-well culture dishes were transfected with human GPCR135 and LGR7, respectively. Mock transfected COS-7 cells were used as the negative controls. [^125I]-relaxin-3 (FIG. 5A) or [^125I]-R3/I5 (FIG. 5B) was added to cells at a final concentration of 100 pM either in the absence or presence of 1 uM of unlabeled relaxin-3 to determine total binding and non-specific binding, respectively. FIG. 5C depicts an autoradiogram of [^125]-relaxin-3 binding in rat brain sagittal section. FIG. 5D depicts an autoradiogram of non-specific binding of [^125]-relaxin-3 as determined in the presence of 100 nM of unlabeled relaxin-3. FIG. 5E depicts an autoradiogram of [^125]-R3/I5 binding in rat brain sagittal section. […] binding of [^125]-R3/I5 as determined in the presence of 100 nM of unlabeled relaxin-3.

[2] = target: T2, GPCR135; assay: Binding of radioligands to COS-7 cells transfected with GPCR135; conditions: radioligand 100 pM
Procedure: as §1

[3] = target: T3, GPCR142 (Homo sapiens, UniProt Q8TDU9, L329S); assay: Inhibition of forskolin stimulated β-galactosidase expression in SK-N-MC/β-gal cells; format: cell-based; conditions: for EC50 to activate GPCR142: inhibition of 5 μM forskolin stimulated β-galactosidase expression, mean ± SEM, n = 3
T3 construct: expressed in transfected cells
Procedure: (§8) Different chimeric polypeptides at various concentrations were added to SK-N-MC/β-gal cells expressing human GPCR135 (FIG. 4A) or GPCR142 (FIG. 4B) to inhibit forskolin stimulated β-galactosidase expression. […] In parallel, chimeric polypeptides at various concentrations were added to SK-N-MC/β-gal cells expressing human LGR7 (FIG. 4C) and LGR8 (FIG. 4D) to stimulate β-galactosidase expression. Relaxin-3 and INSL3 were used as positive controls for LGR7 and LGR8, respectively. Intracellular β-galactosidase activity was measured by a colorimetric assay using CRGP as the substrate and reading the absorbance at wavelength of 570 nm. Data represent mean±SEM (n=3).

[4] = target: T2, GPCR135; assay: as above; format: cell-based; conditions: for EC50 to activate GPCR135: inhibition of 5 μM forskolin stimulated β-galactosidase expression, mean ± SEM, n = 3
Procedure: as §8

[5] = target: T1, LGR7; assay: Radioligand competition binding, [125I]-relaxin-3, live transfected COS-7 cells; conditions: [125I]-relaxin-3 100 pM; mean ± SEM, n = 3
Procedure: For GPCR135, GPCR142, and LGR7, [^125I]-relaxin-3 was used as the radioligand at a final concentration of 100 pM. Different unlabeled peptides were used in the binding assay as the competitors. […] Different unlabeled peptides including relaxin-3 chimeras at various concentrations were added to the binding assay as the competitors. Data represent mean±SEM (n=3).
Radioligand binding assays for LGR7 and LGR8 were performed using live COS-7 cells transiently transfected with LGR7 or LGR8 expression plasmids in 15-cm culture dishes using LipofectAmine (Invitrogen). Two days after transfection, the transfected cells were detached from the 15-cm culture dished using phosphate buffered saline (PBS) plus 10 mM EDTA, seeded into 96-well opaque poly-D-lysine coated culture plates and used for radioligand binding assays. For LGR7, [^125I]-relaxin-3 was used as the tracer. […] [^125I]-labeled tracer was added in binding reactions at a final concentration of 100 pM in binding buffer containing DMEM plus 50 mM HEPES and 1% bovine serum albumin. Unlabeled relaxin-3 and relaxin-3 chimeric polypeptides were added at various concentrations to the binding assays as the competitors, as indicated (FIG. 3). The binding mixtures were incubated at room temperature for 1 hour. The unbound radioligand was removed by aspiration of the binding buffer. The cells were washed with PBS. The bound radioligand was counted in a scintillation counter (TopCount/NTX). The results were analyzed using Prism 3.0 program (Graphpad, San Diego, Calif.). The IC50 values represent the ligand concentrations that inhibit 50% of the maximum specific binding.

[6] = target: T4, LGR8 (Homo sapiens, UniProt Q8WXD0); assay: Stimulation of β-galactosidase expression in SK-N-MC/β-gal cells; format: cell-based
T4 construct: Human LGR8 cDNA containing the complete coding region was PCR amplified; expressed in transfected cells
Procedure: (§2) FIGS. 1A-1D show the activation of GPCR135 and GPCR142 by relaxin-3 B-chain, but not of LGR7 or LGR8. In FIG. 1A, SK-N-MC/β-gal cells expressing human GPCR135 were stimulated with relaxin-3, relaxin-3 B-chain, porcine relaxin, or INSL3 at various concentrations to inhibit the forskolin stimulated β-galactosidase expression. Forskolin was added to cells at a final concentration of 5 μM to stimulate the β-galactosidase expression. FIG. 1B depicts results for SK-N-MC/β-gal cells expressing human GPCR142 stimulated as in FIG. 1A. In FIG. 1C, SK-N-MC/β-gal cells expressing human LGR7 were stimulated with relaxin-3, relaxin-3 B-chain, porcine relaxin, and INSL3 at various concentrations to induce the β-galactosidase expression. The intracellular β-galactosidase activities were measured by a colorimetric assay using CRGP as the substrate and reading the absorbance at a wavelength of 570 nm. For FIG. 1D, SK-N-MC/β-gal cells expressing human LGR8 were stimulated as in FIG. 1C.
(§3) FIGS. 4A-4D illustrate the evaluation of the agonist activity of relaxin-3 chimeric polypeptides in biofunctional assays. Different chimeric polypeptides at various concentrations were added to SK-N-MC/β-gal cells expressing human GPCR135 (FIG. 4A) or GPCR142 (FIG. 4B) to inhibit forskolin stimulated β-galactosidase expression. Human relaxin-3 was used as the positive control. In parallel, chimeric polypeptides at various concentrations were added to SK-N-MC/β-gal cells expressing human LGR7 (FIG. 4C) and LGR8 (FIG. 4D) to stimulate β-galactosidase expression. Relaxin-3 and INSL3 were used as positive controls for LGR7 and LGR8, respectively. Intracellular β-galactosidase activity was measured by a colorimetric assay using CRGP as the substrate and reading the absorbance at wavelength of 570 nm. Data represent mean±SEM (n=3).
(§4) It has been shown that synthetic human relaxin-3 B-chain alone, but not A-chain, is an agonist for both GPCR135 and GPCR142 (Liu et al., 2003, Journal of Biological Chemistry, 278:50754-50764 and Liu et al., 2003, Journal of Biological Chemistry, 278:50765-50770). Those studies were repeated herein in SK-N-MC/β-gal cells, which harbor a β-galactosidase gene under the control of a cAMP responsive element (CRE) (Liu et al., 2001, Molecular Pharmacology, 59:420-426). In such SK-N-MC/β-gal cells, an increase in intracellular cAMP concentration leads to increased β-galactosidase gene expression, the activity of which is measured using Chlorophenol Red-β-D-Galactopyranoside (CPRG) as the substrate.
(§5) The inventive chimeric polypeptides were each independently tested for their ability to activate either GPCR135, GPCR142, LGR7, or LGR8, respectively, in separate pools of SK-N-MC/β-gal cells (see supra), each pool stably expressing one of the respective receptors, as indicated (FIG. 4).
(§6) Cells were seeded in 96-well tissue culture plate at a density of 30,000 cells/well in MEM plus 10% fetal serum, sodium pyruvate, penicillin, streptomycin, and G418 (400 mg/L). For cells expressing GPCR135 or GPCR142, forskolin was added to cells at a final concentration of 5 μM to stimulate intracellular cAMP accumulation. Different concentrations of each of the inventive polypeptides were then added to the cells to inhibit the forskolin induced cAMP accumulation. For cells expressing LGR7 or LGR8, intracellular cAMP was stimulated with each of the inventive chimeric polypeptides at various concentrations.
(§7) For all cells, after adding the chimeric polypeptides, cells were incubated for 6 additional hours in 37° C. incubator. The media was then aspirated and the β-galactosidase activities measured as previously described (Liu et al., 2001, Molecular Pharmacology, 59:420-426). The results were analyzed by Prism 3.0 software. […]

[7] = target: T1, LGR7; assay: as above; format: cell-based; conditions: ligand stimulated β-galactosidase expression; mean ± SEM, n = 3; read-out: EC50 to activate LGR7
Procedure: as §2, §3, §4, §5, §6, §7

T3 sequence (Q8TDU9 whole entry L329S): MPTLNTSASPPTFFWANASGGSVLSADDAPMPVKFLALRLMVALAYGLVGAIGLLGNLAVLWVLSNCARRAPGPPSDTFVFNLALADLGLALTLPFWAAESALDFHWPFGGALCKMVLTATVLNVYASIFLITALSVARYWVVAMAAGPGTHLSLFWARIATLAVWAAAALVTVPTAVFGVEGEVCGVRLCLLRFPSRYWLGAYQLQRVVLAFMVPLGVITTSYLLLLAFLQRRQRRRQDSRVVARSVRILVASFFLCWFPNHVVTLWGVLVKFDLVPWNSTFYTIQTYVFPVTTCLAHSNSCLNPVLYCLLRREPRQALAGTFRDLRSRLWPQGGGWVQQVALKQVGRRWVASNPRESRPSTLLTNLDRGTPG
T4 sequence (Q8WXD0 whole entry): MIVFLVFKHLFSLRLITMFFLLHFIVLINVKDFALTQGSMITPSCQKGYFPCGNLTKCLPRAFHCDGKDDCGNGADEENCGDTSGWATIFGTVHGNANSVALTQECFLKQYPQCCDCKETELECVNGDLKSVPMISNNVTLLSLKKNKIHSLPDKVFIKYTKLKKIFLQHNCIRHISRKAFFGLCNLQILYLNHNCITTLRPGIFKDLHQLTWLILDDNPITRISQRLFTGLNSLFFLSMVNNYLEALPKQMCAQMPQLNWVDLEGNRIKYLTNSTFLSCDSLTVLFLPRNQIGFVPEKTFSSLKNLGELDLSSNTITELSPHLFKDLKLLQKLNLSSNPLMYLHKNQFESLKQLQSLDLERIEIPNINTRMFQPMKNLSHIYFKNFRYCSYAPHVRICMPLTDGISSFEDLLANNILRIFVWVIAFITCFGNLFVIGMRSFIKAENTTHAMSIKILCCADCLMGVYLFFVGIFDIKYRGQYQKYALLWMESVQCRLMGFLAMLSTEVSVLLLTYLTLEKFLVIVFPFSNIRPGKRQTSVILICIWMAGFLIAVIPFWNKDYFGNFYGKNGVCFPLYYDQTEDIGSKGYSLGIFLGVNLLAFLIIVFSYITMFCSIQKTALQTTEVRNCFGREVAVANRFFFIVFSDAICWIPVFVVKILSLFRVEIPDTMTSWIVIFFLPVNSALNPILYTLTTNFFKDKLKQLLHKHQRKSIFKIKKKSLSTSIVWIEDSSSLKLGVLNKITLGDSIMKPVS

Row | Molecule | EC50 to activate GPCR142 [3] | IC50 for binding LGR7 [5] | EC50 to activate GPCR135 [4] | also measured
1 | [^125I]-relaxin-3: radioiodinated human relaxin-3 used as tracer (RAAPYGVRLCGREFIRAVIFTCGGSRWDVLAGLSSSCCKWGCSKSEISSLC; ends and bridges not checked; also: radioiodinated ([125I]), site not given here) [reference compound] | – | – | – | binding to LGR7, in words [1]: did; binding to GPCR135 expressing cells, in words [2]: high affinity
2 | CC[C@H](C)[C@H](NC(=O)[C@H](Cc1ccccc1)NC(=O)[C@H](CCC(=O)O)NC(=O)[C@H](CCCNC(=N)N)NC(=O)CNC(=O)[C@H](CS)NC(=O)[C@H](CC(C)C)NC(=O)[C@H](CCCNC(=N)N)NC(=O)[C@@H](NC(=O)CNC(=O)[C@H](Cc1ccc(O)cc1)NC(=O)[C@@H]1CCCN1C(=O)[C@H](C)NC(=O)[C@H](C)NC(=O)[C@@H](N)CCCNC(=N)N)C(C)C)C(=O)N[C@@H](CCCNC(=N)N)C(=O)N[C@@H](C)C(=O)N[C@H](C(=O)N[C@H](C(=O)N[C@@H](Cc1ccccc1)C(=O)N[C@H](C(=O)N[C@@H](CS)C(=O)NCC(=O)NCC(=O)N[C@@H](CO)C(=O)N[C@@H](CCCNC(=N)N)C(=O)N[C@@H](Cc1c[nH]c2ccccc12)C(=O)O)[C@@H](C)O)[C@@H](C)CC)C(C)C [relaxin-3 B-chain, reference compound] | – | – | – | EC50 ([3]; read-out: EC50 to activate GPCR142): 125 nM; EC50 ([4]; read-out: EC50 to activate GPCR135): 88 nM
3 | R3/R2: chimeric polypeptide: human relaxin-3 B-chain and relaxin-2 A-chain; mature polypeptide SEQ ID NO:20 (RAAPYGVRLCGREFIRAVIFTCGGSRWQLYSALANKCCHVGCTKRSLARFC; Human Relaxin-3/Relaixin-2 chimeric mature polypeptide) | low nanomolar range | low nanomolar range | low nanomolar range | –
4 | R3/I3: chimeric polypeptide: human relaxin-3 B-chain and INSL3 A-chain; mature polypeptide SEQ ID NO:21 (RAAPYGVRLCGREFIRAVIFTCGGSRWNPARYCCLSGCTQQDLLTLC; Human Relaxin-3/Insulin-like 3 chimeric mature polypeptide) | low nanomolar range | low nanomolar range | low nanomolar range | –
5 | R3/R1: chimeric polypeptide: human relaxin-3 B-chain and relaxin-1 A-chain; mature polypeptide SEQ ID NO:19 (RAAPYGVRLCGREFIRAVIFTCGGSRWPYVALFEKCCLIGCTKRSLAKYC; Human Relaxin-3/Relaxin-1 chimeric mature polypeptide) | low nanomolar range | low nanomolar range | low nanomolar range | activation of LGR8, in words ([6]; highest concentration tested 1 μM): marginal activity at the highest concentration tested (1 μM)
6 | porcine relaxin: porcine relaxin, reference ligand for LGR7 and LGR8 (protein) QSTNDFIKACGRELVRLWVEICGSVSWGRTALSLEEPQLETGPPAETMPSSITKDAEILKMMLEFVPNLPQELKATLSERQPSLRELQQSASKDSNLNFEEFKKIILNRQNEAEDKSLLELKNLGLDKHSRKKRLFRMTLSEKCCQVGCIRKDIARLC | – | – | – | EC50 ([6]; ligand stimulated β-galactosidase expression, mean ± SEM, n = 3, read-out: EC50 to activate LGR8): 1.5 nM; EC50 [7]: 0.25 nM
